In general, Kd refers to a measure of binding affinity in units of concentration. Low values mean higher affinity, high ones lower affinity. As a reminder, the koff is the rate constant with which the complex falls apart. A low value points to a long-lived complex. The kon is the rate constant with which the complex forms. A low value points to slow association.

Experiment [1] addresses T1, MUC1-C-L-6×His (His-tagged human MUC1-C protein extracellular domain) (human, UniProt P15941 961-1152).
T1 construct: template human MUC1 UniProt P15941; expressed in 293 cells; also called hMUC1-C-L-his; MUC1-C-L-His
In words: ELISA, coated antigen, hybridoma supernatant. Background: ELISA stands for enzyme-linked immunosorbent assay.

Experiment [2] deals with T2, cyno MUC1-C on stably transfected CHOK1 cells (cyno).
T2 construct: domain: MUC1-C; also called CHOK1-cyno-MUC1-C cells; Monkey MUC1-CT
The experiment is described as follows: FACS, CHOK1-cyno-MUC1-C. Background: Flow cytometry measures light scatter and fluorescence of single cells or particles in a stream.

Experiment [3] addresses T3, Cynomolgus MUC1 his (Cat. #MU1-C52H5, Acro) (cynomolgus).
T3 construct: bought reagent; also called Cyno MUC1-His
In words: SPR Biacore T200, antibody on Protein A chip, 1:1 fit.

Experiment [4] concerns the target T1, MUC1-C-L-6×His (His-tagged human MUC1-C …). In words: SPR Biacore 8K, antibody on Protein A chip, 1:1 fit. (Surface plasmon resonance follows binding to a sensor surface in real time, without labels.)
Experiment [5] addresses T4, human EGFR-His antigen (human, UniProt P00533 25-645).
T4 construct: also called hEGFR-His
In words: SPR Biacore T200, antibody on Protein A chip, 1:1 fit.

For experiment [6], the target named is T5, cynomolgus EGFR-his (Cat. #90285-C08H, Sino Biological) (cynomolgus, UniProt A0A2K5WK39 25-645).
T5 construct: bought reagent; also called Cyno EGFR-His
Described as above.

Experiment [7] concerns the target T4, human EGFR-His antigen. In words: SPR Biacore 8K, antibody on Protein A chip; Ag1 hMUC1-C-His bound first, Ag2 hEGFR-His.
The target of experiment [8] is T4, human EGFR-His antigen. In words: SPR Biacore 8K, antibody on Protein A chip, 1:1 fit.
Experiment [9] has as its target T4, human EGFR-His antigen. In words: SPR Biacore 8K, antibody on Protein A chip; Ag1 blank, Ag2 hEGFR-His.
Experiment [10] has as its target T6, human EGFR as expressed on tumour cell lines (HCC827, T47D, HPAC) (human, UniProt P00533 25-1210).
T6 construct: whole, on cells; the cell line is named under assay; also called HCC827 cells; T47D cells
The experiment is described as follows: FACS, HCC827.

For experiment [11], the target named is T6, human EGFR as expressed on tumour cell …. In words: FACS, HPAC.
The target in experiment [12] is T4, human EGFR-His antigen. In words: SPR Biacore 8K, antibody on Protein A chip, 1:1 fit. This is another data set of the same source.

B1: M4 (antibody of hybridoma 17F3) (antibody, V domains shown)
VH: QVQLQQSGAELARPGASVKLSCKASGYSFTTYGVPWVKQRTGQGLEWIGDIYPRSGNTYYNEKFKGKATLTADKSSDTVFMELRSLSSEDSAVYFCAREDYDNYPYALDYWGQGTSVTVSS
VL: EIVLTQSPAIIAASPGEKVTITCSASSSVFNMNWYQQKPGSSPKIWIYDISKLASGVPGRFSGSGSGTSFSLTINSMEAEDVGTYYCQQRSFYPPTFGGGTKVEIK
notes: murine antibody tested as hybridoma supernatant; also called hybridoma supernatant 17F3
On to B1, for which the OD450 nm in experiment [1] worked out at 1.9.

B2: ChiM4 (antibody, human IgG1, kappa, V domains shown)
VH: B1 VH
VL: EIVLTQSPAIIAASPGEKVTITCSASSSVFNMNWYQQKPGSSPKIWIYDISKLASGVPGRFSGSGSGTSFSLTINSMEAEDVGTYYCQQRSFYPPTFGGGTKVEIKR
notes: murine variable regions on human IgG1 constant regions; also called chimeric antibody of M4
As to B2, the Emax in experiment [2] was 79500.

B3: M4-H1L1 (antibody, human IgG1, kappa)
heavy: not shown
light: DIQMTQSPSSLSASVGDRVTITCSASSSVFNMNWYQQKPGKSPKLWIYDISKLASGVPSRFSGSGSGTDFTLTISSLQPEDFATYYCQQRSFYPPTFGGGTKVEIKRTVAAPSVFIFPPSDEQLKSGTASVVCLLNNFYPREAKVQWKVDNALQSGNSQESVTEQDSKDSTYSLSSTLTLSKADYEKHKVYACEVTHQGLSSPVTKSFNRGEC
notes: humanized, human IgG1
With B3, the dissociation constant Kd is 18.9 nM in [3] and 5.27 nM in experiment [4].

B4: M4H1L1-ZalH4 (bispecific antibody, human IgG1, kappa)
heavy: not shown
light: B3 light
chain 1: not shown
chain 2: DIQLTQSPSSLSASVGDRVTITCRASQDISSALVWYQQKPGKAPKLLIYDASSLESGVPSRFSGSESGTDFTLTISSLQPEDFATYYCQQFNSYPLTFGGGTKVEIKGGGGSSGAPRFLTRPKASVVSVGKDATLSCQIVGNPFPQVSWEKDKQPVTAGVRFRLAQDGDLYRLKILDLQLSDSGQYVCRARNAHGEAFACLGLQVDAEA
notes: also called anti-EGFR-MUC1 bispecific antibody
Take B4: the dissociation constant Kd with human EGFR-His antigen [5] was found to be 14.8 nM; in experiment [6] it was 243 nM; in experiment [3], 17.8 nM; with human EGFR-His antigen [7], 19.6 nM; with human EGFR-His antigen [8], 10.4 nM; with human EGFR-His antigen [9], 18 nM. The molecule further gave a dissociation rate constant (koff) with human EGFR-His antigen [8] of 0.00144 s⁻¹. Further, in the experiment with human EGFR-His antigen [8], the kon came to 139000 M⁻¹ s⁻¹.

B5: ZalH4 (antibody, human IgG1, kappa, V domains shown)
VH: QVQLVESGGGVVQPGRSLRLSCAASGFTFSTYGMHWVRQAPGKGLEWVAVIWDDGSYKYYGDSVKGRFTISRDNSKNTLYLQMNSLRAEDTAVYYCARDGVTMVRGVMKDYFDYWGQGTLVTVSS
VL: DIQLTQSPSSLSASVGDRVTITCRASQDISSALVWYQQKPGKAPKLLIYDASSLESGVPSRFSGSESGTDFTLTISSLQPEDFATYYCQQFNSYPLTFGGGTKVEIKR
notes: anti-EGFR zalutumumab variant, human IgG1; also called EGFR monoclonal antibody ZalH4
On to B5, for which the Kd is 33 nM with human EGFR-His antigen [5], 477 nM in experiment [6] and 44.3 nM with human EGFR-His antigen [12]. The Emax in experiment [10] was 37600; in experiment [11], 13000.

B6: ZalH4-9-A (antibody, human IgG1, kappa, V domains shown)
VH: B5 VH
VL: B5 VL
modifications: compound 9-A coupled to reduced cysteines of the antibody (chains and sites not stated), average DAR n=5.94
notes: also called EGFR monoclonal antibody ADC
For B6, the results for the Emax in [10] and in experiment [11] were 31700 and 14400, respectively.

B7: F4-1 (antibody of hybridoma 3H6) (antibody, V domains shown)
VH: QIQLQQSGPELVKPGASVKISCKASGYTFTDNYINWVKQRPGQGLEYIGWIYPGSGNNKFNEKFKGKATLTVDTSSRTAFMQLSSLTFEDSAVYFCARDYPFPSYHYGMDYWGQGTSVTVSS
VL: QILLTQSPAIMSASPGERVTITCSASSSVSYIHWFQQKPGTSPKLWIYSTSNLASGVPPRFSGSGSGTSFSLTVSRMEAEDAATYYCQQRSSYPPTFGGGTKLEIK
notes: murine antibody tested as hybridoma supernatant; also called hybridoma supernatant 3H6
B7: the OD450 nm in experiment [1] was determined as 2.33.

B8: F4-18 (antibody of hybridoma 36G9) (antibody, V domains shown)
VH: EVQLQQSGAELVRPGSSVKMSCKTSGYTFTSYGINWVKQRPGQGLEWIGYIYLGSDYTEYNEKFKGKATLTSDTTSSTAYMQLSSLTSEDSAIYFCARSAGSLFAYWGQGTLVTVSA
VL: DIQLTQSPSSLSASLGERVSLTCRASQDIGITLNWLQQEPDGTIKRLIYATSSLDSGVPKRFSGSRSGSDYSLTISSLESEDFVDYYCLQYASSPYTFGGGTKLEIK
notes: murine antibody tested as hybridoma supernatant; also called hybridoma supernatant 36G9
As for B8, in experiment [1], the OD450 nm was 2.05.

B9: ChiM6 (antibody, human IgG1, kappa, V domains shown)
VH: QVQLQQSGAELMKPGASVKLSCKATGYRFIPYWIEWIKERPGHGLEWIGEILPGTGRTNYNEKFKGKATFTADTSSNTAYMQLSSLTTEDSAIYYCARYGDDTSGGYYAVDYWGQGTSVTVSS
VL: DIVMTQSSASLAMSLGQRATISCRASESVNILGTNLIHWYQQKPGQPPKLLIYHASNLETGVPARFSGSGSRTDFTLTIDPVEEDDVAIYYCLQSRKIPWTFGGGTKLEIKR
notes: murine variable regions on human IgG1 constant regions; also called chimeric antibody of M6
In turn, B9 registered an Emax in experiment [2] of 70900.

(Values after patent US20260232830A1 (JIANGSU HENGRUI PHARMACEUTICALS, published 2026).)
